Test results as given in the RNAGym collection of RNA variant scans (doi:10.1073/pnas.2313332121).
Fewer inactive variants are shown than the library holds.

B1: TPR 5TU (parent)
chain: GGAUCUUCUCGAUCUAACAAAAAAGACAAAUCUGCCACAAAGCUUGAGAGCAUCUUCGGAUGCAGAGGCGGCAGCCUUCGGUGGCGCGAUAGCGCCAACGUUCUCAACUAUGACACGCAAAACGCGUGCUCCGUUGAAUGGAGUUUAUCAUG

Variants of: B1
Test: polymerase ribozyme fitness, log enrichment relative to wild type (log ratio); higher = more active; in vitro selection for triplet polymerase activity
Procedure, shortened: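 Mutant libraries of both subunits of a heterodimeric triplet polymerase ribozyme were PCR-built, transcribed, and selected once in triplicate, with frozen incubation at −7 °C and capture of gel-excised extended constructs on streptavidin beads before RT-PCR. Illumina sequencing of input and output libraries was filtered to genotypes with ≥10 input reads and ≥1 read per output. Fitness is the logarithm of genotype enrichment over wild-type enrichment, using inverse-variance-weighted replicate averages. The logarithm is base 2.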

Variant	polymerase ribozyme fitness (log ratio)
G83C U104G	-2.14
G80A C93G C96U	-3.96
G74A C114U	-3.85
U77A G94C A98U	≤ -4.2
U77A G94A G140A	≤ -4.2
C76G C93U	≤ -4.2
C76U C85U U101C U145G	-0.2
C76U G83U G84U C123U	-2.49
G83C G92U A137G	-3.45
U82A G83C C123U	-1.12
A73U G126U	-0.661
C75A U90C C95U A107G U127G G141C	≤ -4.2
U82G A97G A98G C118A A119C G140C	≤ -4.2
C76A C87U	-2.16
G81A C87U A97C U101A U104G C116U	-4.01
G83C G94U	-2.72
C75U A107G A142G	≤ -4.2
G81U U82A G92A G152U	≤ -4.2
G83C C105G	-2.69
G80U C114U	-2.31
A73U A122G	-0.995

Variant	polymerase ribozyme fitness (log ratio)
C75A A89U G143C	≤ -4.2
C76A G86A	-2.06
G83A G124C	-2.64
C75U U82C C116A	0.695
G81A A91G	-2.82
G81U U82C C95U A120U	-0.64
C76U A137G	-0.882
G80A C96G	-1.11
C76G A97U	≤ -4.2
A73U G84C C116A	-2.63
G80C G88C G92A G136U	≤ -4.2
U78G U111G A113U	≤ -4.2
A73U C108A A110C G133A	≤ -4.2
G74A C85A U90C G141A U148C	≤ -4.2
U78A A91U A138C	≤ -4.2
U77C C79U C132A	≤ -4.2
G83C	-0.934
G83U	-0.478
G83A	-0.336
C75U G81A C85A C95G A98U	-3.71
G81U C85U	-0.466

Variant	polymerase ribozyme fitness (log ratio)
C75U A98G G112C A122U	≤ -4.2
G80C U90G	≤ -4.2
U82G C87U	-0.516
A73U C96U G112A	≤ -4.2
G83C A110G	-3.65
G83A U135C	-2.09
U82G A91U A110U G117A	≤ -4.2
U82A C99A C118U	-1.42
C75U C99U	-2.07
C79U A89C	-3.38
G74A G84A A107G	≤ -4.2
G83C C96U C108G G143U	≤ -4.2
G83A C108U C125G	-3.77
U78A C79U U82A G94U C96G G126A G141U	≤ -4.2
G74A A122G	-3.39
G81C G117C A138G	-4.02
C76U C79U G83U G94A C105U C118G C132G G136A	≤ -4.2
G80C G92U	-3.97
C75G U78C C99U C132G	≤ -4.2
U77A G86A C116G A121C	≤ -4.2
C76U C116G	0.541

Variant	polymerase ribozyme fitness (log ratio)
U82A C95G C118U G126C	-2.5
U78G C79U G94C A115C G143A	≤ -4.2
C75G U77G G80C A97U G124A	≤ -4.2
C75G G92U	-2.52
C75U G92U	-2.38
C75U G92C	-1.11
G83A G141C	-1.87
C76A C85A G92A G94U C103A C108U A122C	≤ -4.2
C75A G86A A97G G136U	≤ -4.2
G83A U135G G141A	-3.78
G81C A120G	-0.127
C75G C95U	-2.19
C75G G84U	≤ -4.2
U82A C93U A119U U127G G143C	-4.06
C76U C95U U135C C149A	≤ -4.2
U82G G86U U102G U130G A147U	≤ -4.2
C75U C85U A106C A122C U135A U145A	-3.69
C76U A122U	0.0697
A73U C85U	-0.649
C79U G140U	-3.68
C76U C93U C105U	-0.938
